# B1: 17T2 mAb (human recombinant monoclonal IgG1) (antibody, V domains shown)
# VH: QVQLVQSGPEVKKPGTSVKVSCKAPVFTFSISAVQWVRQARGQRLEWIGWIVVGSGNTNYAQNFQERVTITTDMSTGTVYMELSGLRSEDTAMYYCAAPYCNRTTCYDGFDLWGQGTMVTVSS
# VL: EIVLTQSPGTLSLSPGERATLSCRASQSISSNYLAWYQQKPGQAPRLLIYGASSRATGIPDRFSGSGSGTDFTLSINRLEPEDFAMYYCQHYGGLSRWTFGQGTKVEIK
# B2: 17T2 Fab fragment (Fab, V domains shown)
# VH: QVQLVQSGPEVKKPGTSVKVSCKAPVFTFSISAVQWVRQARGQRLEWIGWIVVGSGNTNYAQNFQERVTITTDMSTGTVYMELSGLRSEDTAMYYCAAPYCNRTTCYDGFDLWGQGTMVTVSS
# VL: EIVLTQSPGTLSLSPGERATLSCRASQSISSNYLAWYQQKPGQAPRLLIYGASSRATGIPDRFSGSGSGTDFTLSINRLEPEDFAMYYCQHYGGLSRWTFGQGTKVEIK
# notes: also called Fab 17T2
# Assays:
# [1] = target: T1, RBD of the WH1 (ancestral) SARS-CoV-2 spike protein (Severe acute respiratory syndrome …, UniProt P0DTC2); assay: ELISA; details: both partners purified
# T1 construct: also called RBD from the ancestral variant; WH1 RBD
# [2] = target: T2, B.1.1.529 (BA.1) S1 + S2 Trimer-His Recombinant Protein (SARS-CoV-2 Omicron B.1.1.529 (BA.1), strain); assay: cryo-EM structure; details: both partners purified
# T2 construct: also called Omicron BA.1 trimeric spike; BA.1 spike
Binder,binding result [1],stoichiometry N [2] [Fab per spike trimer]
B1,binds,–
B2,–,3
